From patent publication US20240272170A1 (QUANTUM SI, published 2024)
No end group written: not given here. *: point of attachment. FITC = O=C1OC2(c3ccc(O)cc3Oc3cc(O)ccc32)c2ccc(NC(=S)*)cc21

Tests used:
[1] = target: T1, QP1165 after cleavage to N-terminal arginine (RVWK); assay: on-chip dynamic sequencing of QP1165, PS1875 run, trace Aperture=295010
T1 peptide: RVWK

[2] = target: T1, QP1165 after cleavage to N-terminal …; assay: on-chip dynamic sequencing of QP1165, 500 nM PS2132 plus five recognizers, 36192 alignments
[3] = target: T1, QP1165 after cleavage to N-terminal …; assay: on-chip dynamic sequencing of QP1165, 500 nM PS2123 plus five recognizers, 62511 alignments
[4] = target: T1, QP1165 after cleavage to N-terminal …; assay: on-chip dynamic sequencing of QP1165, PS2123 run, trace Aperture=1168773
[5] = target: T1, QP1165 after cleavage to N-terminal …; assay: on-chip dynamic sequencing of QP1165, 500 nM PS1875 plus five recognizers, 11565 alignments
Protocol: (§1) The semiconductor chip was placed in the sequencing device and a chip check was performed to test electronic circuit function and to optimize laser coupling alignment. The chip was then removed from the device socket and the chip was washed twice with 50 μL of 70% isopropanol, followed by four washes with 30 μL of wash buffer (50 mM MOPS pH 8.0, 60 mM potassium acetate, 50 mM glucose, 20 mM magnesium acetate, and surfactant mix) through a flow cell attached to the chip. A second chip check was then performed. The laser was then blocked via an integrated software-controlled shutter, peptide complex was added to a final concentration of 1-10 nM and mixed thoroughly, and the chip was incubated for 15 min. The chip was then washed six times with wash buffer, followed by addition of an imaging solution (wash buffer with 5 mM Trolox and an oxygen scavenging system). The laser was unblocked and the occupancy percentage (target 10-30%, Poisson distributed) was recorded by acquiring a photobleaching signal from a fluorophore attached to the peptide complex during 5 min of laser illumination. […] Data was recorded for 15 min. The laser was then blocked briefly and aminopeptidases were added to the sequencing reaction via the flow cell and mixed thoroughly (final concentration 2-8 μM PhTET2 and/or 20-80 μM PhTET3, as indicated according to the experiment). The laser was then unblocked, and data was recorded for 10 hours. For all runs, 30 μL of mineral oil was added to fluid reservoirs at each port of the flow cell to prevent evaporation during the run.

[6] = target: T1, QP1165 after cleavage to N-terminal …; assay: on-chip dynamic sequencing of QP1165, PS1875 run, trace Aperture=1353995
[7] = target: T1, QP1165 after cleavage to N-terminal …; assay: on-chip dynamic sequencing of QP1165, 500 nM PS1875 plus five recognizers, 7305 alignments
[8] = target: T1, QP1165 after cleavage to N-terminal …; assay: on-chip dynamic sequencing of QP1165, PS2121 run, trace Aperture=1683362
[9] = target: T1, QP1165 after cleavage to N-terminal …; assay: on-chip dynamic sequencing of QP1165, PS1875 run, trace Aperture=340501
[10] = target: T1, QP1165 after cleavage to N-terminal …; assay: on-chip dynamic sequencing of QP1165, 500 nM PS2121 plus five recognizers, 15527 alignments
[11] = target: T1, QP1165 after cleavage to N-terminal …; assay: on-chip dynamic sequencing of QP1165, 500 nM PS1875 plus five recognizers, 3369 alignments
[12] = target: T1, QP1165 after cleavage to N-terminal …; assay: on-chip dynamic sequencing of QP1165, PS2132 run, trace Aperture=376215
[13] = target: T1, QP1165 after cleavage to N-terminal …; assay: on-chip dynamic sequencing of QP1165, PS1875 run, trace Aperture=430641
[14] = target: T1, QP1165 after cleavage to N-terminal …; assay: on-chip dynamic sequencing of QP1165, PS2132 run, trace Aperture=1826247
[15] = target: T1, QP1165 after cleavage to N-terminal …; assay: on-chip dynamic sequencing of QP1165, PS2121 run, trace Aperture=740473
[16] = target: T1, QP1165 after cleavage to N-terminal …; assay: on-chip dynamic sequencing of QP1165, PS1875 run, trace Aperture=1377116
Protocol: as §1

VA peptide [17] = target: T2, VA peptide; assay: BLI (Octet), peptide on sensor, purified protein in solution
T2 construct: The peptide was coated on the Octet sensor; also called peptide with N-terminal valine and penultimate alanine
Excerpt: (§2) In the high-throughput assay, Octet sensors are coated with the peptide of interest and dipped in buffer containing the purified protein. An approximation of relative binding can be obtained by comparing the response after 200 seconds for each protein. Each protein has approximately the same molecular mass and is used at the same concentration, so ranking the proteins by response level in this assay gives an approximation of which proteins have improved binding. Studying the on and off-rate can also give insight into the mechanism of binding.

LA peptide [18] = target: T3, LA peptide; assay: as above
T3 construct: The peptide was coated on the Octet sensor; also called peptide with N-terminal leucine and penultimate alanine
Excerpt: as §2

AA peptide [19] = target: T4, AA peptide; assay: as above
T4 construct: The peptide was coated on the Octet sensor; also called peptide with N-terminal alanine and penultimate alanine
Excerpt: as §2

VA peptide [20] = target: T2, VA peptide; assay: BLI (Octet), peptide on sensor, purified protein in solution; second row for PS829
Excerpt: as §2

LA peptide [21] = target: T3, LA peptide; assay: as above
Excerpt: as §2

AA peptide [22] = target: T4, AA peptide; assay: as above
Excerpt: as §2

VA peptide [23] = target: T2, VA peptide; assay: BLI (Octet), peptide on sensor, purified protein in solution; second row for PS833
Excerpt: as §2

LA peptide [24] = target: T3, LA peptide; assay: as above
Excerpt: as §2

AA peptide [25] = target: T4, AA peptide; assay: as above
Excerpt: as §2

[26] = target: T5, AA Peptide (fluorescence polarization), AAKLDEESILKQ{LYS(FITC)}; assay: fluorescence polarization, FITC peptide titrated with protein
T5 peptide: AAKLDEESILKQK(FITC)

[27] = target: VA Peptide (fluorescence polarization) (FITC on the C-terminal lysine); assay: as above
[28] = target: T6, MA Peptide (fluorescence polarization); assay: as above
T6 peptide: MAKLDEESILKQK(FITC)

[29] = target: T7, MA peptide (Octet assay of PS557 variants); assay: Octet (BLI), peptide on sensor, response after 200 s association; second PS833 row
T7 construct: Peptide coated on the Octet sensor
Excerpt: as §2

[30] = target: T8, IA peptide (Octet assay of PS557 variants); assay: as above
T8 construct: Peptide coated on the Octet sensor
Excerpt: as §2

[31] = target: T9, YA peptide (Octet assay of PS557 variants); assay: as above
T9 construct: Peptide coated on the Octet sensor
Excerpt: as §2

[32] = target: T10, FA peptide (Octet assay of PS557 variants); assay: as above
T10 construct: Peptide coated on the Octet sensor
Excerpt: as §2

[33] = target: T11, WA peptide (Octet assay of PS557 variants); assay: as above
T11 construct: Peptide coated on the Octet sensor
Excerpt: as §2

[34] = target: T7, MA peptide (Octet assay of PS557 …); assay: Octet (BLI), peptide on sensor, response after 200 s association
Excerpt: as §2

[35] = target: T8, IA peptide (Octet assay of PS557 …); assay: as above
Excerpt: as §2

[36] = target: T9, YA peptide (Octet assay of PS557 …); assay: as above
Excerpt: as §2

[37] = target: T10, FA peptide (Octet assay of PS557 …); assay: as above
Excerpt: as §2

[38] = target: T11, WA peptide (Octet assay of PS557 …); assay: as above
Excerpt: as §2

B1: PS1220 (designed binder)
single polypeptide, two PS1122 units in tandem: MHSKFSHAGRICGAKFKVGEPIYRCKECSFDDTCVLCVNCFNPKDHLGHHVYTTICTEFNNGECDCGDKTAWNHTLFCKAEEGSAGSAAGSGEFMHSKFSHAGRICGAKFKVGEPIYRCKECSFDDTCVLCVNCFNPKDHLGHHVYTTICTEFNNGECDCGDKTAWNHTLFCKAEEG
notes: also called PS1220 (R); PS1220 (4-CY3B)
PD of a recognition segment in an example trace [1]: 0.3 s
IPD (interpulse duration) [2]: 11.1 s
PD (pulse duration) [2]: 0.44 s
IPD (interpulse duration) [3]: 9.74 s
PD (pulse duration) [3]: 0.4 s
PD of a recognition segment in an example trace [4]: 0.3 s
IPD (interpulse duration) [5]: 10.6 s
PD (pulse duration) [5]: 0.37 s
PD of a recognition segment in an example trace [6]: 0.34 s
IPD (interpulse duration) [7]: 10.5 s
PD (pulse duration) [7]: 0.43 s
PD of a recognition segment in an example trace [8]: 0.45 s
PD of a recognition segment in an example trace [9]: 0.31 s
IPD (interpulse duration) [10]: 11.9 s
PD (pulse duration) [10]: 0.46 s
IPD (interpulse duration) [11]: 9.99 s
PD (pulse duration) [11]: 0.42 s
PD of a recognition segment in an example trace [12]: 0.94 s
PD of a recognition segment in an example trace [13]: 0.31 s
PD of a recognition segment in an example trace [14]: 0.27 s
PD of a recognition segment in an example trace [15]: 0.71 s
PD of a recognition segment in an example trace [16]: 0.4 s

B2: PS829 (designed binder)
chain: MPTAASATESAIEDTPAPARPEVDGRTKPKRQPRYHVVLWDDDDHTYQYVVVMLQSLFGHPRERGYRLAKEMDTLGRVIVLTTTREHAELKRDQIHAFGYDRLLARSKGSMKASIEAEE
notes: Variant of PS557
Octet response after 200 sec association (VA peptide [17]): 9.5 nm
Octet response after 200 sec association (LA peptide [18]): 8.5 nm
Octet response after 200 sec association (AA peptide [19]): 2.5 nm
Octet response after 200 sec association (VA peptide [20]): 11.3 nm
Octet response after 200 sec association (LA peptide [21]): 10.9 nm
Octet response after 200 sec association (AA peptide [22]): 4.5 nm

B3: PS833 (designed binder)
chain: MPTAASATESAIEDTPAPARPVVDGRTKPKRQPRYHVVLWDDDDHTYQYVVVMLQSLFGHPPERGYRLAKEMDTQGRVIVLTTTREHAELKRDQIHAFGYDRLLARSKGSMKASIEAEE
notes: Variant of PS557
Octet response after 200 sec association (VA peptide [17]): 8.6 nm
Octet response after 200 sec association (LA peptide [18]): 10.7 nm
Octet response after 200 sec association (AA peptide [19]): 1 nm
Octet response after 200 sec association (VA peptide [23]): 10.4 nm
Octet response after 200 sec association (LA peptide [24]): 12.4 nm
Octet response after 200 sec association (AA peptide [25]): 0.849 nm

B4: PS833 (designed binder)
chain: MPTAASATESAIEDTPAPARPVVDGRTKPKRQPRYHVVLWDDDDHTYQYVVVMLQSLFGHPPERGYRLAKEMDTQGRVIVLTTTREHAELKRDQIHAFGYDRLLARSKGSMKASIEAEE
notes: Variant of PS557
Kd [26]: 7080 nM
Kd [27]: 312 nM
Kd [28]: 1040 nM
Octet response [29]: 7.01 nm
Octet response [30]: 10.8 nm
Octet response [31]: 0.109 nm
Octet response [32]: 0.0889 nm
Octet response [33]: 0.0006 nm
Octet response [34]: 5.11 nm
Octet response [35]: 9.26 nm
Octet response [36]: 0.117 nm
Octet response [37]: 0.0509 nm
Octet response [38]: 0.00561 nm
